Our source for the Kd values is publication PMC3708937, “Function of FlhB, a Membrane Protein Implicated in the Bacterial Flagellar Type III Secretion System” (PLoS ONE, 2013).

The target in assay [1] is T1, Salmonella FliC (flagellin) (Salmonella enterica serovar Typhimurium, UniProt P06179 1-495).
T1 construct: FliC (flagellin), major component of the flagellar filament, Salmonella enterica serovar Typhimurium
The assay can be described thus: SPR; Biacore T100; AquFlhBC or FliC amine-coupled to a CM5 chip; FliS or FliS A22T flowed at 30 µl/min for 12 min; 10 mM HEPES pH 7.4, 150 mM NaCl, 0.05% (v/v) Surfactant P20; 25°C; steady-state analysis, 1:1 binding model. Conditions: both partners purified.

Assay [2] concerns the target T2, Aquifex FlhBC (C-terminal cytoplasmic domain of Aquifex aeolicus FlhB) (Aquifex aeolicus, UniProt O67813 213-350).
T2 construct: FlhB of Aquifex aeolicus, cytoplasmic domain FlhBC; also called AquFlhBC; source: purified as described previously [14]
T2 sequence (looked up): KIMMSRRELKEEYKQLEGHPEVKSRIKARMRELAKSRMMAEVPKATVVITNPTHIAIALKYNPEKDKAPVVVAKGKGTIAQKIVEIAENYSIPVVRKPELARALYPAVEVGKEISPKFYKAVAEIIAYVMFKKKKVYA
The assay is described as above. The note with it: both partners purified.

T1 sequence (P06179 whole entry): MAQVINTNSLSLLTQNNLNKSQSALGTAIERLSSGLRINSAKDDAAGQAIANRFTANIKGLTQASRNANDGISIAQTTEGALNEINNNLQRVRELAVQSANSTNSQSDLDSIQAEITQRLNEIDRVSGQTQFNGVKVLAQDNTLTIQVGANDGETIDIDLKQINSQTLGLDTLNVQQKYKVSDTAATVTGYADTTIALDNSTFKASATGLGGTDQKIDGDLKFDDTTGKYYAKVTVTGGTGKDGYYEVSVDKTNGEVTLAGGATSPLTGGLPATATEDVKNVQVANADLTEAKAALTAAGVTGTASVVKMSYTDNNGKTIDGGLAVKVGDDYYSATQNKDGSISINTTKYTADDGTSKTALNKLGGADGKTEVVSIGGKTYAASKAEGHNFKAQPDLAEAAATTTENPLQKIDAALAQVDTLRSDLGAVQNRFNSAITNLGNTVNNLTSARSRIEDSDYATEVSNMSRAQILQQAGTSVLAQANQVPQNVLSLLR

B1: Salmonella FliS (wild type) (natural protein)
chain: MYTASGIKAYAQVSVESAVMSASPHQLIEMLFDGANSALVRARLFLEQGDVVAKGEALSKAINIIDNGLKAGLDQEKGGEIATNLSELYDYMIRRLLQANLRNDAQAIEEVEGLLSNIAEAWKQISPKASFQESR
notes: FliS, flagellin-specific chaperone of Salmonella enterica serovar Typhimurium; also called wild-type FliS
Turning to B1, the Kd in assay [1] amounted to 0.7 µM; in assay [2], 169 µM.

B2: Salmonella FliS A22T (natural protein)
chain: MYTASGIKAYAQVSVESAVMSTSPHQLIEMLFDGANSALVRARLFLEQGDVVAKGEALSKAINIIDNGLKAGLDQEKGGEIATNLSELYDYMIRRLLQANLRNDAQAIEEVEGLLSNIAEAWKQISPKASFQESR
notes: FliS of Salmonella enterica serovar Typhimurium with the point mutation A22T; The mutation arose as a spontaneous extragenic suppressor in the laboratory strain CB351; expression and purification of the protein are not described; also called FliS mutant A22T; fliS22264(A22T)
With B2, the Kd was determined as 11.9 µM in assay [1] and 304 µM in assay [2].
